Data from patent US20230167174A1.

How the values were obtained:
[1] = molecular target: T1, human TREM2 endogenously expressed (hM2A macrophages, THP1-B5 cells, iPS derived microglia) (human) (UniProt Q9NZC2); assay: FACS, hM2A, median of 4 donors
T1 sequence (looked up): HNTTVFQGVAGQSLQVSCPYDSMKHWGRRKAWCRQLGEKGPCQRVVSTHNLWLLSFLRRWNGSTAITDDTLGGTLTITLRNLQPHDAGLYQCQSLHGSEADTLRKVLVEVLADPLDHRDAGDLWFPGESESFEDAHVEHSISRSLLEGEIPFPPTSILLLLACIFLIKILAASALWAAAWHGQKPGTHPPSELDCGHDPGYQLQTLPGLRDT

[2] = molecular target: T1, human TREM2 endogenously expressed (hM2A macrophages, THP1-B5 cells, iPS derived microglia) (human); assay: FACS, hM2A, donor 4
[3] = molecular target: T2, hTREM2 ECD (19-174)-hFc (human) (UniProt Q9NZC2); assay: SET
T2 sequence (chain, biotinylated where printed -bio): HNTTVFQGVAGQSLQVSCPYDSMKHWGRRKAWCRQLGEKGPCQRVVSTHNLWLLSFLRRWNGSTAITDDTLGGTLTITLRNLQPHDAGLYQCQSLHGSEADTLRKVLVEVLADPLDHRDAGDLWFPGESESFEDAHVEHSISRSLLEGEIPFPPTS

[4] = molecular target: cyTREM2 ECD (19-174)-APP-Avi (cynomolgus); assay: SET
[5] = molecular target: T3, human TREM2 on CHO-hDAP12-hTREM2 cells (human) (UniProt Q9NZC2); assay: FACS, CHO-hTREM2
T3 sequence: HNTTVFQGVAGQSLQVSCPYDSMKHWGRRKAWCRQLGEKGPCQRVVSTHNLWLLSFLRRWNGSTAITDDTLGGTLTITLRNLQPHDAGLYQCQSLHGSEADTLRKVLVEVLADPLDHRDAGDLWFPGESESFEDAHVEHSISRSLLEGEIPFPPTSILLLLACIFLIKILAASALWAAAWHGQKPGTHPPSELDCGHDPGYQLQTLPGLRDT

[6] = molecular target: cynomolgus TREM2 on CHO-hDAP12-cyTREM2 cells (cynomolgus); assay: FACS, CHO-cyTREM2
[7] = molecular target: T1, human TREM2 endogenously expressed (hM2A macrophages, THP1-B5 cells, iPS derived microglia) (human); assay: cell-based or functional assay
[8] = molecular target: T3, human TREM2 on CHO-hDAP12-hTREM2 cells (human); assay: cell-based or functional assay
[9] = molecular target: cyTREM2 ECD (19-174)-hFc (cynomolgus); assay: recombinant protein binding
[10] = molecular target: T2, hTREM2 ECD (19-174)-hFc (human); assay: recombinant protein binding
[11] = molecular target: T4, hTREM2 IgSF-hTREM1 stalk-hFc (human) (UniProt Q9NZC2); assay: recombinant protein binding
T4 sequence (looked up): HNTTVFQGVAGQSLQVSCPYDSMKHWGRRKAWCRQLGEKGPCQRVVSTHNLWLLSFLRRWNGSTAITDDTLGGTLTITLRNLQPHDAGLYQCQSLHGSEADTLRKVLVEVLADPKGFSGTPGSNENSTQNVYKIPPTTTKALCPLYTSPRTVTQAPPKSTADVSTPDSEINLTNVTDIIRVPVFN

[12] = molecular target: T1, human TREM2 endogenously expressed (hM2A macrophages, THP1-B5 cells, iPS derived microglia) (human); assay: FACS, hM2A
[13] = molecular target: T2, hTREM2 ECD (19-174)-hFc (human); assay: SPR, label free kinetics
[14] = molecular target: cyTREM2 ECD (19-174)-APP-Avi (cynomolgus); assay: SPR, label free kinetics
[15] = molecular target: T1, human TREM2 endogenously expressed (hM2A macrophages, THP1-B5 cells, iPS derived microglia) (human); assay: FACS, hM2A, donor 2
[16] = molecular target: T1, human TREM2 endogenously expressed (hM2A macrophages, THP1-B5 cells, iPS derived microglia) (human); assay: FACS, hM2A, donor 3
[17] = molecular target: T1, human TREM2 endogenously expressed (hM2A macrophages, THP1-B5 cells, iPS derived microglia) (human); assay: FACS, hM2A, donor 1
[18] = molecular target: T2, hTREM2 ECD (19-174)-hFc (human); assay: SET screening

cynomolgus TREM2 on CHO-hDAP12-cyTREM2 cells (cynomolgus), sequence (chain, as listed by the source): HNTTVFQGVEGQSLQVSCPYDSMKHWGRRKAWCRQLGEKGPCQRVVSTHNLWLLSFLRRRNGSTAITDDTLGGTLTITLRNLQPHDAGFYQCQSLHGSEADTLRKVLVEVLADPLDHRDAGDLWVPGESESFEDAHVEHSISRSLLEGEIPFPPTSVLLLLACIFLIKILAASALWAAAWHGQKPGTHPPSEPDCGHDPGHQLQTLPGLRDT

B1: MOR044746 (antibody, from a related filing, V domains shown)
VH: QVQLQQSGPGLVKPSQTLSLTCAISGDSVSSSSAAWNWIRQSPSRGLEWLGHIGYRSKWYNEYAVSVKSRITINPDTSKNQFSLQLNSVTPEDTAVYYCARGMYGSVPYKEGYYFDIWGQGTLVTVSS
VL: DIQMTQSPSSLSASVGDRVTITCRASQGISSDLNWYQQKPGKAPKLLIYAASNLQSGVPSRFSGSGSGTDFTLTISSLQPEDFATYYCQQYTDESMTFGQGTKVEIK
EC50 [1]: 590 pM | EC50 [2]: 640 pM | Kd [3]: 3 pM | Kd [4]: 4 pM | EC50 [5]: 160 pM | EC50 [6]: 650 pM | Fold TREM2 cell surface increase compared to isotype (hM2A, 100 nM) [7]: 5.1 fold | TREM2 activation (fold in RGA) [7]: 1.3 fold | lowest active concentration, phagocytosis in hM2A [7]: 1 nM | Internalization compared to parental after 6 h [8]: 0.7 fold | Internalization; fold over background after 6 h [8]: 33.3 fold | S/BG [9]: > 5 | S/BG [10]: > 5 | S/BG [11]: > 20 | EC50 [12]: < 2000 pM | Kd [13]: 3 pM | Kd [14]: 4 pM | EC50 [15]: 540 pM | EC50 [16]: 540 pM | EC50 [17]: 730 pM | Kd [18]: < 600 pM
